The values below come from paper PMC5789848, “HTLV-1 Tax plugs and freezes UPF1 helicase leading to nonsense-mediated mRNA decay inhibition” (Nature Communications, 2018).

Changes are numbered by the printed parent chain. Names may count otherwise.

Settings in all cases: both partners purified
Assay [1] concerns the target T1, UPF1-HD-SQ (HD and SQ domains of UPF1; aa 295-1118) (human, UniProt Q92900-2 295-1118).
T1 construct: UPF1, human, helicase and SQ domains, aa 295-1118; numbers count on: the 1118 aa form; Tags 'and/or' as printed; source: E. coli BL21 DE3, purified (nickel and calmodulin resin)
T1 sequence (looked up): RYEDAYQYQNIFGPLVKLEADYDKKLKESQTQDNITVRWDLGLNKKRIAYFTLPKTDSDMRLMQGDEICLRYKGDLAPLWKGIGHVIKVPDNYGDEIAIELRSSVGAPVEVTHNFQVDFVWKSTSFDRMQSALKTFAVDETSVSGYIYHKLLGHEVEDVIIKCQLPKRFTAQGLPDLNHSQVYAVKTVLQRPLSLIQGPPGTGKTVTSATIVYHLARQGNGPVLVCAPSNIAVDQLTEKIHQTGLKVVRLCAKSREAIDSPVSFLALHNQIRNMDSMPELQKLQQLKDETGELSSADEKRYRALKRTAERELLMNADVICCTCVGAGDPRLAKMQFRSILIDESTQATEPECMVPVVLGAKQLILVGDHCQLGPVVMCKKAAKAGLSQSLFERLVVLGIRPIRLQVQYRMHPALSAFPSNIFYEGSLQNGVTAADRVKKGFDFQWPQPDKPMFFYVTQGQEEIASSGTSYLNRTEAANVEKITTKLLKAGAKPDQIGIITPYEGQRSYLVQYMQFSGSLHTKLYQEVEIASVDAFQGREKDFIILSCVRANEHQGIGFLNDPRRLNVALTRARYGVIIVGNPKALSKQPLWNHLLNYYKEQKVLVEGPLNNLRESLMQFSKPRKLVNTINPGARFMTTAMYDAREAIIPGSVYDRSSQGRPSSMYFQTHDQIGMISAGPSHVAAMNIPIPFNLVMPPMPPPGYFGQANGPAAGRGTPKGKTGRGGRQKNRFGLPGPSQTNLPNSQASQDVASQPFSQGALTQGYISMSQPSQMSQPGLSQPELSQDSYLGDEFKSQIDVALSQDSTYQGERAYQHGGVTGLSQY
Briefly: pull-down; GST-Tax as bait on GST resin, purified UPF1 proteins as prey; extensive washes with 0.3 M NaCl (methods: binding buffer with 200 mM NaCl); SDS-PAGE, coomassie staining.

Assay [2] concerns the target T2, UPF1-CH-HD (CH and HD domains of UPF1; aa 115-914) (human, UniProt Q92900-2 115-914).
T2 construct: UPF1, human, CH and helicase domains, aa 115-914; numbers count on: the 1118 aa form; Tags 'and/or' as printed; source: E. coli BL21 DE3, purified (nickel and calmodulin resin)
T2 sequence (looked up): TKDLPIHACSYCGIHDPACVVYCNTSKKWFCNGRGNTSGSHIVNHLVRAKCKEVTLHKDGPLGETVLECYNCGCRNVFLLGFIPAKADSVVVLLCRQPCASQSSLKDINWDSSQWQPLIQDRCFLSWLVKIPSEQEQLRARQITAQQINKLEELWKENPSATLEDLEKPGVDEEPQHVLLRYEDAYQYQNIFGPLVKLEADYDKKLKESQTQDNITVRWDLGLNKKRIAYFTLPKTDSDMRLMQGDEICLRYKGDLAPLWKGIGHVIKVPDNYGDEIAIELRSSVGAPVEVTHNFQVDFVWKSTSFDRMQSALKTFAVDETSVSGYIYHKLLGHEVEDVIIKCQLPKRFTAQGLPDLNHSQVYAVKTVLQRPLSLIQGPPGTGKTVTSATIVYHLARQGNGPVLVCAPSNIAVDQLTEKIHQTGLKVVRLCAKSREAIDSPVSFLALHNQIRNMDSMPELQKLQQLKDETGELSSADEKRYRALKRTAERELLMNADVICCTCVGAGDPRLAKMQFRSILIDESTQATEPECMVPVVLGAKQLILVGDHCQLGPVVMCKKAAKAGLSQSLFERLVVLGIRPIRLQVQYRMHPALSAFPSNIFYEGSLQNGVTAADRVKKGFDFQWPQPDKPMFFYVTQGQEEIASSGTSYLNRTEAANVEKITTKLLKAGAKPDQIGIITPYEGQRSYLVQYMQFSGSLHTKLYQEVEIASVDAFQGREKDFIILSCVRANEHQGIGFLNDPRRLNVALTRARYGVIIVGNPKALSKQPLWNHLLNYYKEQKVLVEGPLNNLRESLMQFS
Described as above.

Assay [3] has as its target T3, UPF1 full-length (UPF1-FL; aa 1-1118) (human, UniProt Q92900-2 1-1118).
T3 construct: Up-Frameshift Suppressor 1 Homolog (UPF1), human, aa 1-1118; printed length 1118 aa; source: E. coli BL21 DE3, purified (nickel and calmodulin resin)
T3 sequence (looked up): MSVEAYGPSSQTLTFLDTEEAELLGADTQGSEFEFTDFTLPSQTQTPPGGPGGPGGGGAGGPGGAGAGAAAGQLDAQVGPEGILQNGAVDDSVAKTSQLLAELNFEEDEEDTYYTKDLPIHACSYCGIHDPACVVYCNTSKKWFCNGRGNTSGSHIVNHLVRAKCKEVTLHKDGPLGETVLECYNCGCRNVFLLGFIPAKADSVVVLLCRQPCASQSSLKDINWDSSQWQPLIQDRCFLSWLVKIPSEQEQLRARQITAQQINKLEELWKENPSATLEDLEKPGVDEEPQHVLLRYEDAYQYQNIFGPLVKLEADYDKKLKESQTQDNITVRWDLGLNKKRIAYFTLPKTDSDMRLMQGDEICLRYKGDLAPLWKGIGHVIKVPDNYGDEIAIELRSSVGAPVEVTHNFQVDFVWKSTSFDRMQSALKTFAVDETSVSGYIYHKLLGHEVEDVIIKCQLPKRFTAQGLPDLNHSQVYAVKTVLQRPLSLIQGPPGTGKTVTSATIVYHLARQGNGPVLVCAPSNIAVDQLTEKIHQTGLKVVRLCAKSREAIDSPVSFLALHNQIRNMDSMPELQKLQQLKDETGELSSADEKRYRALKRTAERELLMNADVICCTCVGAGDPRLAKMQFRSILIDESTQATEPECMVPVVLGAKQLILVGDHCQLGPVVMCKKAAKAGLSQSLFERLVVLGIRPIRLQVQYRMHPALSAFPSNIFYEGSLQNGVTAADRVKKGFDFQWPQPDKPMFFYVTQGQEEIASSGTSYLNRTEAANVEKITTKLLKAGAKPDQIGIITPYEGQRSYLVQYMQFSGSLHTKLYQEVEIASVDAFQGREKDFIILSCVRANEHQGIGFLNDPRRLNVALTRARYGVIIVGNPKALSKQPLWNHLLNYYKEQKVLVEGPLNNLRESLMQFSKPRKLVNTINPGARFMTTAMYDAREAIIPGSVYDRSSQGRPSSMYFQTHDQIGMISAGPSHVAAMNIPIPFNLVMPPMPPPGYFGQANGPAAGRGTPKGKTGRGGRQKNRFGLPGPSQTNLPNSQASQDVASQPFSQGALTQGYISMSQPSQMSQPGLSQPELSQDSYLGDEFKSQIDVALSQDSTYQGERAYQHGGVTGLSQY
Described as above.

The target of assay [4] is T4, UPF1 helicase core domain (UPF1-HD; aa 295-914), C-terminal hexahistidine (human, UniProt Q92900-2 295-914).
T4 construct: UPF1, human, helicase core domain (HD), aa 295-914; numbers count on: the 1118 aa form; for UPF1-HD only the C-terminal hexahistidine is named; also called UPF1-HD-His; HisUPF1-HD; source: E. coli BL21 DE3, purified (Ni-NTA); also in E. coli lysate (co-lysis with Tax-expressing bacteria); not shown: His6, C-terminal, kept
T4 sequence (looked up): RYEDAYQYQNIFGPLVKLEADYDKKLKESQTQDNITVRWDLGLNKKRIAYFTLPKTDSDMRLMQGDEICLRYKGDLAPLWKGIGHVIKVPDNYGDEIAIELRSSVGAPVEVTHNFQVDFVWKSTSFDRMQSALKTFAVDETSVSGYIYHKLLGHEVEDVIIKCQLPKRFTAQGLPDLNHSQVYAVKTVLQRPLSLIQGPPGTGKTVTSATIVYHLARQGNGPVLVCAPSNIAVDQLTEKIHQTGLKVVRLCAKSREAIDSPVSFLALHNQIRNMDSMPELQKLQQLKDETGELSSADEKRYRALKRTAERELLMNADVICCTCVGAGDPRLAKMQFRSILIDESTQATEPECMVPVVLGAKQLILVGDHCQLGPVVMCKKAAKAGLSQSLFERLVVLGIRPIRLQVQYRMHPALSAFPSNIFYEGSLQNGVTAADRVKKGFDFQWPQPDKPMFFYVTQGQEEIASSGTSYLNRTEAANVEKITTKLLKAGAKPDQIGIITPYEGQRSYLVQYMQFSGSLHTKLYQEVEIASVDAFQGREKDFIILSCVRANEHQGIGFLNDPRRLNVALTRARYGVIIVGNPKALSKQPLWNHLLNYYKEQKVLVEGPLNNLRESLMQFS
The description is as above.

Assay [5] has as its target T5, GST-Tax_(CACA) (HTLV-1 Tax with C23 and C29 changed to alanine, N-terminal GST fusion) (HTLV-1, UniProt P03409 1-353, C23A | C29A).
T5 construct: Tax protein of HTLV-1, 353 amino acids, double mutant of the zinc finger region; plasmid pGEX2T-Tax_(CACA) made from pGEX2T-TaxWT; also called GST-tagged Tax_(CACA); source: E. coli BL21-DE3, purified (glutathione magnetic beads); also in E. coli lysate (co-lysis with HisUPF1-HD bacteria); not shown: GST, N-terminal, kept
Put plainly: BLI; BLItz; GST-Tax covalently bound to an AR2G sensor; UPF1 His-HD proteins in running buffer (300 mM NaCl, 20 mM phosphate, 0.02% Tween 20, 0.1% albumin); 250 s association, 60 s dissociation.

B1: GST-Tax (HTLV-1 Tax, wild type, N-terminal glutathione S-transferase fusion) (natural protein)
chain: not shown
notes: Tax protein of human T-cell lymphotropic virus type I (HTLV-1); also called TaxWT; HTLV-1 GST-Tax; source: E. coli BL21-DE3, purified (glutathione magnetic beads); also in E. coli lysate (co-lysis with HisUPF1-HD bacteria); not shown: GST, N-terminal, kept
As to B1, the binding result in assay [1], in assay [2], in assay [3] and in assay [4] was “binds” in each case.

B2: UPF1-HD_(DE636AA), histidine-tagged (domain or fragment)
chain: T4 sequence (looked up) with D342A, E343A
notes: numbers count on: the 1118 aa form; also called UPF1-HD_(DE633AA); UPF1-HD_(DEAA); source: E. coli BL21 DE3, purified (Ni-NTA)
As to B2, the “fold change of binding against WT” value in assay [5] was approximately 1.8 times.

B3: UPF1-HD_(R843S), histidine-tagged (domain or fragment)
chain: T4 sequence (looked up) with R549S
notes: UPF1, human, helicase core domain aa 295-914 (as UPF1-HD) with R843S; numbers count on: the 1118 aa form; source: E. coli, purified (as the other His-tagged UPF1 proteins)
Turning to B3, in assay [5], the “fold loss of affinity against WT” value came out at 4 times.
